The target in experiment [1] is T1, MICA on human tumor cells (A-375, A549, HCT-15, MDA-MB-231) (human, UniProt Q29983 24-383).
T1 construct: whole, on cells
T1 sequence (looked up): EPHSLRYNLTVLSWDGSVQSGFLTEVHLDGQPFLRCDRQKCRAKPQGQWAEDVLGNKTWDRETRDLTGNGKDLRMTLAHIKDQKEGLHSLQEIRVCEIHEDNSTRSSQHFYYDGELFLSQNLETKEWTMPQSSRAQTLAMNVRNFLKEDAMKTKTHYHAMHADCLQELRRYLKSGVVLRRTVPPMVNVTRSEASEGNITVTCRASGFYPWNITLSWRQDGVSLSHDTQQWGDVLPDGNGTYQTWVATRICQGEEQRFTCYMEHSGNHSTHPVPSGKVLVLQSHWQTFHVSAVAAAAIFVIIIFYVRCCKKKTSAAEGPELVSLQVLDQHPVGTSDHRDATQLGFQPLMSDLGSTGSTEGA
The experiment is described as follows: flow cytometry on HCT-15 cells, Alexa-647 goat anti-human secondary, average fluorescence intensity. As to the method:
(1) Tumor cells were diluted to a density of 2×10⁶/mL with PBS and then added into a 1.5 ml EP tube in a volume of 100 l/tube. 10 l/tube of goat serum was added into the EP tube; and blocking was conducted at 4° C. for 30 min. Antibody h5A1 (having a heavy chain sequence as set forth in SEQ ID NO: 11 and a light chain sequence as set forth in SEQ ID NO: 12), antibody h5A1002 (having a heavy chain sequence as set forth in SEQ ID NO: 13 and a light chain sequence as set forth in SEQ ID NO: 14), and control IgG1 (purchased from Biointron) were gradient-diluted (at a highest working concentration of 50 μg/ml, 10 gradients, diluted by 3 times for each gradient) and added. The tube was incubated at 4° C. for 30 min. 1 mL of PBS was added into the EP tube, and centrifugation was conducted 4° C. at a rate of 3,500 rpm for 5 min. The supernatant was removed. The EP tube was washed once with the PBS. The supernatant was removed after centrifugation. The cells were resuspended with PBS in a volume of 100 l/tube. An Alexa-647 labeled goat anti-human secondary antibody (purchased from Jackson lab) was added into the tube in a volume of 1 l/tube; and the plate was incubated in the dark at 4° C. for 30 min. The tube was washed twice with PBS, and the supernatant was removed after centrifugation. […]
(In general: A flow cytometer gives signals particle by particle.)

The next experiment concerns the target T2, MICB001α3-Fc.
T2 construct: also called MICB*001-Fc; domain α3 of MICB-001 Fc fusion protein
The experiment is described as follows: ELISA on coated MICB*001 α3-Fc (1 µg/ml), HRP anti-human Fab secondary, OD450. As to the method: (§1) After the antibodies were added, signal intensity was used for judging the binding characteristics of the antibodies and MICA and MICB.
(§2) The fusion proteins (produced in the Applicant's laboratory; an amino acid sequence of MICA002α3-Fc is as set forth in SEQ ID NO: 22; an amino acid sequence of MICA005α3-Fc is as set forth in SEQ ID NO: 24; an amino acid sequence of MICA008α3-Fc is as set forth in SEQ ID NO: 25; an amino acid sequence of MICA004α3-Fc is as set forth in SEQ ID NO: 23; an amino acid sequence of MICB001α3-Fc is as set forth in SEQ ID NO: 26; and an amino acid sequence of MICB005α3-Fc is as set forth in SEQ ID NO: 27) were diluted to a concentration of 1 μg/ml with PBS and then added into a 96-well plate in a volume of 100 μl/well. The plate was placed at 4° C. overnight. The PBS in the 96-well plate was removed by sucking. After the plate was washed with PBST (that is, PBS having a pH value of 7.2 included 0.1 volume % of Tween 20) for 6 times, PBS containing 10% of BSA was added in a volume of 200 μl/well. The plate was incubated at 37° C. for 2 hours for blocking. The blocking solution was removed. […]
A general note: In an ELISA, binding on a coated surface is turned into a signal by an enzyme label.

The target of another experiment is T3, MICB005α3-Fc.
T3 construct: also called MICB*005-Fc; domain α3 of MICB-005 Fc fusion protein
Briefly: ELISA on coated MICB*005 α3-Fc (1 µg/ml), HRP anti-human Fab secondary, OD450. As to the method:
as §1, §2

The target in experiment [2] is T4, MICA protein (SPR analyte) (human, UniProt Q29983 24-308, limits assumed).
T4 construct: also called major histocompatibility complex class I chain related polypeptide A
T4 sequence: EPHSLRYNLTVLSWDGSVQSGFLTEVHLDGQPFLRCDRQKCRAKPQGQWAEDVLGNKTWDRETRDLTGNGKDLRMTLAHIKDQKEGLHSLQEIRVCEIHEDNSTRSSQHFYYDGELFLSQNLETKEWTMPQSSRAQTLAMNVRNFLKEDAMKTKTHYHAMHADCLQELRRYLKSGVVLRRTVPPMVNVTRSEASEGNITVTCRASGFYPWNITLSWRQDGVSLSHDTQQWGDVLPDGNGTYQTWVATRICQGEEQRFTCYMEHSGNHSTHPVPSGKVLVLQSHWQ
The experiment is described as follows: SPR, Biacore 8K, antibody captured on protein A chip, MICA as analyte. Here is the method:
In a Biacore 8K (Cytiva) system, the antibody was diluted to a concentration of 10 µg/mL with running buffer (HBS-EP), and the antibody was conjugated onto a protein A (Cytiva, 29127556) chip at a flow rate of […].
Kinetic and affinity data of binding of the maternal antibody h5A1 and the affinity maturation antibody h5A1002 and MICA were detected.
A general note: Surface plasmon resonance follows binding to a sensor surface in real time, without labels.

A further experiment deals with T5, MICA002α3-Fc (human).
T5 construct: Produced in the Applicant's laboratory; also called MICA*002-Fc; domain α3 of MICA-002 Fc fusion protein
The experiment is described as follows: ELISA on coated MICA*002 α3-Fc (1 µg/ml), HRP anti-human Fab secondary, OD450. As to the method: as §1, §2

The target in a further experiment is T6, MICA008α3-Fc (human).
T6 construct: also called MICA*008-Fc; domain α3 of MICA-008 Fc fusion protein
Briefly: ELISA on coated MICA*008 α3-Fc (1 µg/ml), HRP anti-human Fab secondary, OD450. Here is the method: as §1, §2

For a further experiment, the target named is T7, MICA004α3-Fc (human).
T7 construct: also called MICA*004-Fc; domain α3 of MICA-004 Fc fusion protein
Briefly: ELISA on coated MICA*004 α3-Fc (1 µg/ml), HRP anti-human Fab secondary, OD450. As to the method:
as §1, §2

In a further experiment the target is T8, MICA005α3-Fc (human).
T8 construct: also called MICA*005-Fc; domain α3 of MICA-005 Fc fusion protein
Briefly: ELISA on coated MICA*005 α3-Fc (1 µg/ml), HRP anti-human Fab secondary, OD450. Here is the method: as §1, §2

The source of these data is patent publication US20240368285A1 (HEFEI TG IMMUNOPHARMA, published 2024).

T8 sequence (chain, as listed by the source limits assumed): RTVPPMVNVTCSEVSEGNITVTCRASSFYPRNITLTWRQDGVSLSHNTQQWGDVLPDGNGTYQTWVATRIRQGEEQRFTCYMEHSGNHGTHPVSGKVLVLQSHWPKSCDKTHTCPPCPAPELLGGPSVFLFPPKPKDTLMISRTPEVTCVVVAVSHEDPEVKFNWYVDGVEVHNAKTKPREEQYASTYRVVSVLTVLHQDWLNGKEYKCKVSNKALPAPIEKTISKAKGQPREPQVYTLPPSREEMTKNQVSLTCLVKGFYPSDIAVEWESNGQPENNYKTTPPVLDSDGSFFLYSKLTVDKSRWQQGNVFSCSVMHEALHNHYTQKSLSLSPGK
T5 sequence (chain, as listed by the source limits assumed): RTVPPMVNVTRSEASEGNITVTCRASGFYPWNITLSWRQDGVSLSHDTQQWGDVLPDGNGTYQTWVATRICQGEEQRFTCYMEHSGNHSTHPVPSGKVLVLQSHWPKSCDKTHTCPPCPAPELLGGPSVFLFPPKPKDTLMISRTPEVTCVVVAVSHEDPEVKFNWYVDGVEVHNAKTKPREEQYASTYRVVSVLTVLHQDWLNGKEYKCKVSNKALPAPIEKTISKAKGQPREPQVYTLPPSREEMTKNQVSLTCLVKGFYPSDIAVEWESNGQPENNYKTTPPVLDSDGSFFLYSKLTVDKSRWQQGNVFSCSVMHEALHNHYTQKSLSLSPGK
T3 sequence (chain, as listed by the source limits assumed): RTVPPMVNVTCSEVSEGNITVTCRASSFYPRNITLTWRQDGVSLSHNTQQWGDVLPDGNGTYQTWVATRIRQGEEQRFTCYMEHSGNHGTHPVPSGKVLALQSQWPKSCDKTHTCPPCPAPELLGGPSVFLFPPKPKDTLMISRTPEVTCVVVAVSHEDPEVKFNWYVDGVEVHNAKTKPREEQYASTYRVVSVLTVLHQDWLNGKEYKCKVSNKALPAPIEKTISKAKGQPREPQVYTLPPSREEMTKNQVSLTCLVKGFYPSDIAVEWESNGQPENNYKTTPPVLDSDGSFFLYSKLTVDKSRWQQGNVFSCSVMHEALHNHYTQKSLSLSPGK
T6 sequence (chain, as listed by the source limits assumed): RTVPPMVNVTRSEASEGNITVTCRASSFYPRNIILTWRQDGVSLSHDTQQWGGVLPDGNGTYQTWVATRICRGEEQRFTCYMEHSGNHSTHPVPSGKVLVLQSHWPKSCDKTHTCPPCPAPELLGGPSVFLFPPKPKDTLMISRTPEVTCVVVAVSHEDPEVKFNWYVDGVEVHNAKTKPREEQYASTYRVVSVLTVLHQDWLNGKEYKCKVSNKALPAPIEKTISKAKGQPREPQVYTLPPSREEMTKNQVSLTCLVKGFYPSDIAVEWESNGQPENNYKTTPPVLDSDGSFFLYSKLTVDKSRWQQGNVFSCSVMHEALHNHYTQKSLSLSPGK
T2 sequence (chain, as listed by the source limits assumed): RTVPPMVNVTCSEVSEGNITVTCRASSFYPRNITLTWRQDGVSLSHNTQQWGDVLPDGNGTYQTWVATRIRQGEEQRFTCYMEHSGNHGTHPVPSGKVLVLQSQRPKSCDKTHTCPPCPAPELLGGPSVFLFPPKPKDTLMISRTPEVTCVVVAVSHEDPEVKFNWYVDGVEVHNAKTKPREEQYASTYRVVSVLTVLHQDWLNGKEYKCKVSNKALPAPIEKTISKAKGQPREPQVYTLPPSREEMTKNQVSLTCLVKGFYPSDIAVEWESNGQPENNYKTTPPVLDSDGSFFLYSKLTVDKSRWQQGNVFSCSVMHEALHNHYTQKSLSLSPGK
T7 sequence (chain, as listed by the source limits assumed): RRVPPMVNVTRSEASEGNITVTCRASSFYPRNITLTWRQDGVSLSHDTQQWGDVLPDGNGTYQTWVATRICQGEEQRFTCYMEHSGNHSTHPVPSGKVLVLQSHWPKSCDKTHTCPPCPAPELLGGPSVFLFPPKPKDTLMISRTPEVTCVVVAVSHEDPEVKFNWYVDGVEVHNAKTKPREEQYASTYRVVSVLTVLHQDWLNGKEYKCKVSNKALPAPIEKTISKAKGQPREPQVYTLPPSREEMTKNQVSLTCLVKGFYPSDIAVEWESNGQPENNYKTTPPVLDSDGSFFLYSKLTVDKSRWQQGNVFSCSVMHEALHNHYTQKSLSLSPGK

B1: maternal humanized antibody h5A1 (antibody, human IgG1, kappa, V domains shown)
VH: QVQLQESGPGLVKPSETLSLTCTVSGFSLTTYGVHWIRQPPGKGLEWIGMIWTDGTTDYNAAFISRVTISVDTSKNQFSLKLSSVTAADTAVYYCARKGHGYYYAMDYWGQGTLVTVSS
VL: EIVLTQSPGTLSLSPGERATLSCTASSSVSSSYLHWYQQKPGQAPRLLIYSTSNLASGIPDRFSGSGSGTDFTLTISRLEPEDFAVYYCHQYHRSPFTFGQGTKLEIKR
notes: Human IgG1, kappa; The full chains are stated for the ELISA and flow cytometry; also called h5A1-hIgG1; maternal antibody h5A1
For the molecule B1, the half-maximal effective concentration (EC50 (read off the curve)) in experiment [1] is around 3 µg/mL; in the experiment with MICB001α3-Fc, around 0.07 µg/mL; with MICB005α3-Fc, around 0.05 µg/mL; with MICA002α3-Fc it was around 0.3 µg/mL; with MICA004α3-Fc it was around 0.07 µg/mL; with MICA005α3-Fc it was around 0.4 µg/mL. In experiment [2], this molecule displayed a Kd of 215 nM. In addition, the koff in experiment [2] was 0.000641 s⁻¹. Further, in experiment [2], the kon came to 2970 M⁻¹ s⁻¹. In the experiment with MICA008α3-Fc, the binding result was “binds”.

Broadly, the EC50 (read off the curve) is the midpoint of the concentration-response curve. For orientation: Kd means a measure of binding affinity in units of concentration. A higher Kd goes with lower affinity. In general, koff refers to the first-order rate constant of dissociation. Low readings indicate slow dissociation, high ones fast dissociation. What is called kon is a measure of how fast the partners come together.
